In patent US20180009908 one finds % heterodimer (UPLC) data, which are given here for two proteins.

The target of series [1] is T1, HA-tagged human IgG1 Fc portion with CH3 mutations Y349S, K370Y, T366M, K409V.
T1 chain: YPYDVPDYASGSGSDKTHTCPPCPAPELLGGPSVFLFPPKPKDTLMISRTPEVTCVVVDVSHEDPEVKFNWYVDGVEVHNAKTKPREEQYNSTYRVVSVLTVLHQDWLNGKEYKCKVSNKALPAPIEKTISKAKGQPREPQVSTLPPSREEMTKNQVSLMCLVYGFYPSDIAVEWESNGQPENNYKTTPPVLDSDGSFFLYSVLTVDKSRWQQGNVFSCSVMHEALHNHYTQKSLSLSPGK
Kind of series: UPLC SEC of protein G-purified one-arm antibody co-expressed in HEK293F.

In series [2] the target is T2, HA-tagged human IgG1 Fc portion with CH3 mutations Y349S, K370Y, T366V, K409V.
T2 chain: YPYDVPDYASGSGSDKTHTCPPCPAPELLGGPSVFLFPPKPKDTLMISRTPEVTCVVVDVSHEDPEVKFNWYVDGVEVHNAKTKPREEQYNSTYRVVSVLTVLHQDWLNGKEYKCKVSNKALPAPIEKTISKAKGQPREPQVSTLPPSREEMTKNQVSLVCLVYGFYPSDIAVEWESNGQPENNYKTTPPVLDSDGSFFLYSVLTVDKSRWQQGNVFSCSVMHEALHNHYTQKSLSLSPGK
Described as above.

B1: anti-c-Met 5D5 VH-human IgG1 HC with CH3 mutations E357D, S364R, Y407A, with 5D5 light chain (protein)
chain 1: EVQLVESGGGLVQPGGSLRLSCAASGYTFTSYWLHWVRQAPGKGLEWVGMIDPSNSDTRFNPNFKDRFTISADTSKNTAYLQMNSLRAEDTAVYYCATYRSYVTPLDYWGQGTLVTVSSASTKGPSVFPLAPSSKSTSGGTAALGCLVKDYFPEPVTVSWNSGALTSGVHTFPAVLQSSGLYSLSSVVTVPSSSLGTQTYICNVNHKPSNTKVDKRVEPKSCDKTHTCPPCPAPELLGGPSVFLFPPKPKDTLMISRTPEVTCVVVDVSHEDPEVKFNWYVDGVEVHNAKTKPREEQYNSTYRVVSVLTVLHQDWLNGKEYKCKVSNKALPAPIEKTISKAKGQPREPQVYTLPPSREDMTKNQVRLTCLVKGFYPSDIAVEWESNGQPENNYKTTPPVLDSDGSFFLASKLTVDKSRWQQGNVFSCSVMHEALHNHYTQKSLSLSPGK
chain 2: DIQMTQSPSSLSASVGDRVTITCKSSQSLLYTSSQKNYLAWYQQKPGKAPKLLIYWASTRESGVPSRFSGSGSGTDFTLTISSLQPEDFATYYCQQYYAYPWTFGQGTKVEIKRTVAAPSVFIFPPSDEQLKSGTASVVCLLNNFYPREAKVQWKVDNALQSGNSQESVTEQDSKDSTYSLSSTLTLSKADYEKHKVYACEVTHQGLSSPVTKSFNRGEC
Turning to B1, the % heterodimer (UPLC) in series [1] and in series [2] was 85% each time.

B2: anti-c-Met 5D5 VH-human IgG1 HC with CH3 mutations E356G, E357D, S364Q, Y407A, with 5D5 light chain (protein)
chain 1: EVQLVESGGGLVQPGGSLRLSCAASGYTFTSYWLHWVRQAPGKGLEWVGMIDPSNSDTRFNPNFKDRFTISADTSKNTAYLQMNSLRAEDTAVYYCATYRSYVTPLDYWGQGTLVTVSSASTKGPSVFPLAPSSKSTSGGTAALGCLVKDYFPEPVTVSWNSGALTSGVHTFPAVLQSSGLYSLSSVVTVPSSSLGTQTYICNVNHKPSNTKVDKRVEPKSCDKTHTCPPCPAPELLGGPSVFLFPPKPKDTLMISRTPEVTCVVVDVSHEDPEVKFNWYVDGVEVHNAKTKPREEQYNSTYRVVSVLTVLHQDWLNGKEYKCKVSNKALPAPIEKTISKAKGQPREPQVYTLPPSRGDMTKNQVQLTCLVKGFYPSDIAVEWESNGQPENNYKTTPPVLDSDGSFFLASKLTVDKSRWQQGNVFSCSVMHEALHNHYTQKSLSLSPGK
chain 2: DIQMTQSPSSLSASVGDRVTITCKSSQSLLYTSSQKNYLAWYQQKPGKAPKLLIYWASTRESGVPSRFSGSGSGTDFTLTISSLQPEDFATYYCQQYYAYPWTFGQGTKVEIKRTVAAPSVFIFPPSDEQLKSGTASVVCLLNNFYPREAKVQWKVDNALQSGNSQESVTEQDSKDSTYSLSSTLTLSKADYEKHKVYACEVTHQGLSSPVTKSFNRGEC
Turning to B2, the % heterodimer (UPLC) in series [1] is 94%; in series [2] it was 92%.
